167 variants from the RNAGym collection of RNA variant scans (doi:10.1093/nar/gkz1192) can be followed below.

The chains are these.
B1: CPEB3 Ribozyme (parent)
chain: UAACAGGGGGCCACAGCAGAAGCGUUCACGUCGCAGCCCCUGUCAGAUUCUGGUGAAUCUGCGAAUUCUGCUGUAUAUCUC

The variants in the data set derive from B1. In words: self-cleavage, relative activity (ratio to wild type); higher = more cleavage; in vitro, sequencing. A digest of the protocol:
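CPEB3 self-cleaving ribozyme mutant libraries were made by rounds of error-prone PCR, barcoded, and transcribed in vitro with T7 RNA polymerase for 5 hours at 37°C. Cleavage occurred during transcription and a 15 min DNase I step before EDTA stop. RNAs were reverse transcribed with template switching and Illumina-sequenced, with DNA sequencing mapping barcodes to variants. Relative activity is the variant's cleaved/total read fraction divided by wild type's (minimum 5 reads), averaged across three batches.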
With A47C C62U, the self-cleavage was 0.18.
As for U26G U66G, the figure is 0.2; as for G46A U60A, 0.5.
As to G10A U43G, the self-cleavage worked out at 0.19.
The same measure for G7C A57U: 0.19; for U43C C62U: 0.3; for C62U U67C: 0.31.
As for U66A U74G, the figure is 0.59; as for U31A G33A, 0.24; as for G53A A64G, 0.98.
Consider U31A A35U, for which the self-cleavage was determined as 0.3.
The same measure for C11G U67C: 0.16; for A35U G53A: 0.51.
The same measure for G63A U67A: 0.31.
Take C32A U69A: the self-cleavage amounted to 0.18.
As for G16A C37U, the figure is 0.24; as for A21C U48C, 0.19.
As for G33C A75G, the figure is 0.18.
As for A47G U51C, the figure is 0.94; as for G9A C81U, 0.35.
U60G U66G: the self-cleavage was determined as 0.24.
As for C37G A64U, the figure is 0.22; as for G53U C68U, 1.13; as for G63U G70A, 0.62.
As for G53A U58C, the self-cleavage is 0.98.
Take C14U A65U: the self-cleavage was found to be 0.34.
As to U60G U69C, the self-cleavage was 0.23.
The same measure for C34U A45C: 0.17; for A5C C32G: 0; for U41A A65G: 0.25.
The same measure for U41C G63A: 0.89; for A56U U58A: 0.31.
As for G70A C71G, the self-cleavage is 0.23.
In the case of G30U G33A, the self-cleavage amounted to 0.24.
Take A28G G73U: the self-cleavage worked out at 1.26.
With A13G G52A, the self-cleavage was 1.04.
As for C40U U43C, the figure is 0.39; as for G9A A64C, 0.06; as for G8C G52A, 0.31.
As for A18G G30A, the figure is 0.2; as for U1A A15U, 0.69; as for A2G A35U, 0.37.
The same measure for A35C U41A: 0.47; for C40G U80C: 0.19; for U60C C68G: 0.31.
Take U51G G53C: the self-cleavage was 1.19.
With G24A C32A, the self-cleavage was determined as 0.29.
As for U41G U60A, the figure is 0.16; as for A5U A18U, 0.34.
Take C38A A47C: the self-cleavage came to 0.5.
The same measure for G10A U69G: 0.36; for A47U U69A: 0.34; for G6A U58A: 0.27.
The same measure for G7A A15G: 0.09.
The same measure for G63U A64G: 0.79.
For the variant C14U C59A, the self-cleavage was 0.28.
As to U60A U72C, the self-cleavage is 0.64.
Regarding C12A U41G, the self-cleavage came to 0.36.
The same measure for C37G A45U: 0.13.
As for A15G G73C, the figure is 1.16; as for C34G C68U, 0.15.
As for G36A G55A, the figure is 0.09; as for A3C C11U, 0.88; as for C12U U48C, 1.18.
On to U48A U72C, for which the self-cleavage was 0.45.
With C62A A64G, the self-cleavage is 0.25.
Turning to A20U G63A, the self-cleavage is 0.19.
As for U51A U80C, the figure is 1.
As for A28G A75G, the figure is 0.53.
As for G16A U51A, the figure is 0.57.
G63U U74C: the self-cleavage is 1.19.
On to G53C A75U, for which the self-cleavage came to 1.12.
Turning to U49C U60G, the self-cleavage was determined as 0.13.
In the case of A20C U60C, the self-cleavage was found to be 0.17.
C34U A65G: the self-cleavage is 0.34.
Take U25C U69C: the self-cleavage is 0.22.
As for A13U C32G, the figure is 0.45; as for A2G A5U, 0.8.
For U51C G53C, the self-cleavage is 1.01.
As for A47G U74C, the figure is 1.13.
For U51A C79G, the self-cleavage stood at 1.17.
The same measure for A28G C32U: 0.24; for G7C A18G: 0.33; for A20U A77C: 0.25.
As for G10A A64C, the figure is 0.18; as for U51C C59A, 0.29; as for U41A G70U, 0.12.
As for A18G A65U, the figure is 0.38.
U58C G73A: the self-cleavage stood at 1.24.
As for U49A U54A, the figure is 0.81; as for G30A U58A, 0.09.
Turning to C59A U74G, the self-cleavage was 0.74.
Consider A5C A13U, for which the self-cleavage came to 1.22.
As for G22A A65G, the figure is 0.23; as for A20G C71A, 0.15.
As for U1A U54A, the figure is 1.14; as for C11G U41A, 0.25.
As for U49A G55C, the figure is 0.62; as for G36A A64U, 0.14.
As to A35U C40G, the self-cleavage came to 0.17.
On to A28U A45U, for which the self-cleavage was 0.4.
For A65G U72A, the self-cleavage came to 0.4.
As for A2C G8A, the figure is 0.1.
The same measure for U31C C40U: 0.49; for U41A U78G: 0.13.
The same measure for U49C U78G: 0.39; for G6U U31C: 0.22; for U43C A56U: 0.26.
Turning to A15G A56U, the self-cleavage was 0.39.
As for A20G U72C, the figure is 0.84; as for U58A U74A, 0.6.
Turning to U26C A45C, the self-cleavage was 0.36.
As for U1C C34A, the figure is 0.12; as for G36C U51A, 0.16.
On to G6A A77G, for which the self-cleavage turned out to be 0.45.
As for C11G U60G, the figure is 0.21.
The same measure for G52U U76C: 1.19; for C4A U25C: 0.52.
For the variant G24A U69G, the self-cleavage was 0.13.
The same measure for U49A C79U: 1.07; for G46U G70A: 0.08.
As for C4U U74C, the figure is 1.18.
As for A18U A28C, the figure is 0.15; as for C14U U67C, 0.23; as for A3G G16C, 0.47.
For the variant C11U U51C, the self-cleavage turned out to be 0.44.
As to C12U U74A, the self-cleavage is 1.3.
G52A U60G: the self-cleavage came out at 0.44.
Turning to U31A G55A, the self-cleavage worked out at 0.41.
As for A13G U66G, the figure is 0.31; as for A2G U48C, 0.28; as for G55C G70C, 0.17.
For A3G A57C, the self-cleavage worked out at 0.49.
With U60C U66G, the self-cleavage stood at 0.15.
On to G10A U74A, for which the self-cleavage amounted to 0.25.
Turning to U25C G55A, the self-cleavage was 0.28.
Consider G10C G52A, for which the self-cleavage was 0.2.
The same measure for C4A A20G: 1.11.
Take C37U U49A: the self-cleavage is 0.38.
Turning to A2U A20C, the self-cleavage came to 0.32.
In the case of C40A U74A, the self-cleavage stood at 0.3.
Take A35G G53U: the self-cleavage stood at 1.27.
The same measure for G30A G73U: 0.46; for A28C G70A: 0.27.
Consider U26C C79U, for which the self-cleavage came to 0.55.
As for G24A G73A, the figure is 0.14; as for A5G G19U, 0.45; as for C44U A77U, 0.22.
As to A21C C23G, the self-cleavage worked out at 0.16.
The same measure for A28C U54G: 0.36; for U1C U74G: 1.19; for A2G G7U: 0.42.
As for A18U C29U, the self-cleavage turned out to be 0.17.
As for A20G G46U, the figure is 0.23; as for C79U, 1.17; as for A15U C39A, 0.24.
Consider A3G C34A, for which the self-cleavage worked out at 0.2.
As for A13U U51C, the self-cleavage turned out to be 0.94.
The same measure for C27G C50U: 0.23; for C23U U54A: 0.31.
Consider C34U A56G, for which the self-cleavage was found to be 0.48.
As for A5G A13U, the figure is 0.98.
A21C U54C: the self-cleavage is 0.23.
As for A2U G22A, the figure is 0.22; as for C32U C68U, 0.2; as for A56U U80C, 0.83.
On to C12G U25C, for which the self-cleavage was found to be 0.14.
